Assay results from article PMC11778176, “The IclR-family transcriptional regulator XyrR controls flotation, motility, antibiotic production and virulence in Serratia sp. ATCC 39006”.

Biological target: T1, IclR (XyrR, XynR homolog) (Serratia sp. ATCC 39006, UniProt A0A2I5T4I6 1-255)
T1 sequence: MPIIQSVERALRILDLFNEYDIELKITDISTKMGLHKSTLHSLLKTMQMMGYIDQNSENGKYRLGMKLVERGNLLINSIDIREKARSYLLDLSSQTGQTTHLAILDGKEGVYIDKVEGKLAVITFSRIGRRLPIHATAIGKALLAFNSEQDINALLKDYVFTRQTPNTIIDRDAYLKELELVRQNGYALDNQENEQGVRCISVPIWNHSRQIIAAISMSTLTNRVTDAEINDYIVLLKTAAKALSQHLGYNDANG
Assay: EMSA; complete shift at 0.8 uM IclR (stated protein:DNA 32:1; Methods state probe 5 nM); 10 mM Tris-HCl pH 8, 5 mM DTT, 50 mM KCl, 1 mM MgCl2, 10% glycerol, 0.1% Triton X-100, 30 min at 20 C; 5 nM probe
Details: protein: recombinant; tags: 6xHis (pQE80); chain copies: 2; label: Cy5 on LUEGO strand (S13); three strands: S15 (long) pairs with S13 followed by S14; nick between S13 and S14; blunt

B1: yagE promoter LUEGO probe (dsDNA)
DNA 1: CACCACAAATTGCAGTGTTAGTATCATTTCGTTAATGTAGAACTTAGTTCTATAATATAAAACAAAATATCAATGAAGATCGACTGACACATATCGATTGTTGTGA
DNA 2: TCACAACAATCGATATGTGTCAGTCGATCTTCATTGATATTTTGTTTTATATTATAGAACTAAGTTCTACATTAACGAAATGATACTAACACTGCAATTTGTGGTGCCAGACCAGGGCAC
DNA 3: GTGCCCTGGTCTGG
binding result: binds
